In patent US20240092867A1 (UNIVERSITY OF CHICAGO, published 2024):

T1: placental growth factor (PlGF)-2 (human, UniProt P49763-3 19-170)
T1 construct: mature; Purchased in mature form
T1 sequence (looked up): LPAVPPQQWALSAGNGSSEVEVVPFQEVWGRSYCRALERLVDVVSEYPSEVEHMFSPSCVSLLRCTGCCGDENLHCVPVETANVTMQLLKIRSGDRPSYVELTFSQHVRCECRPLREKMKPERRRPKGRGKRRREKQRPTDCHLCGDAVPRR

B1: fibroblast growth factor (FGF)-7 (ligand, UniProt P21781 32-194, looked up)
chain: CNDMTPEQMATNVNCSSPERHTRSYDYMEGGDIRVRRLFCRTQWYLRIDKRGKVKGTQEMKNNYNIMEIRTVAVGIVAIKGVESEFYLAMNKEGKLYAKKECNEDCNFKELILENHYNTYASAKWTHNGGEMFVALNQKGIPVRGKKTKKEQKTAHFLPMAIT
notes: mature; Purchased in mature form
B2: fibroblast growth factor (FGF)-18 (ligand, UniProt O76093 28-207, looked up)
chain: EENVDFRIHVENQTRARDDVSRKQLRLYQLYSRTSGKHIQVLGRRISARGEDGDKYAQLLVETDTFGSQVRIKGKETEFYLCMNRKGKLVGKPDGTSKECVFIEKVLENNYTALMSAKYSGWYVGFTKKGRPRKGPKTRENQQDVHFMKRYPKGQPELQKPFKYTTVTKRSRRIRPTHPA
notes: as for B1
B3: bone morphogenetic protein (BMP)-2 (ligand, UniProt P12643 283-396, looked up)
chain: QAKHKQRKRLKSSCKRHPLYVDFSDVGWNDWIVAPPGYHAFYCHGECPFPLADHLNSTNHAIVQTLVNSVNSKIPKACCVPTELSAISMLYLDENEKVVLKNYQDMVVEGCGCR
notes: mature
B4: neurotrophin (NT)-3 (ligand, UniProt P20783 139-257, looked up)
chain: YAEHKSHRGEYSVCDSESLWVTDKSSAIDIRGHQVTVLGEIKTGNSPVKQYFYETRCKEARPVKNGCRGIDDKHWNSQCKTSQTYVRALTSENNKLVGWRWIRIDTSCVCALSRKIGRT
notes: as for B1
B5: C-X-C motif ligand (CXCL)-11 (ligand, UniProt O14625 22-94, looked up)
chain: FPMFKRGRCLCIGPGVKAVKVADIEKASIMYPSNNCDKIEVIITLKENKGQRCLNPKSKQARLIIKKVERKNF
notes: as for B1
B6: fibroblast growth factor (FGF)-10 (ligand, UniProt O15520 38-208, looked up)
chain: QALGQDMVSPEATNSSSSSFSSPSSAGRHVRSYNHLQGDVRWRKLFSFTKYFLKIEKNGKVSGTKKENCPYSILEITSVEIGVVAVKAINSNYYLAMNKKGKLYGSKEFNNDCKLKERIEENGYNTYASFNWQHNGRQMYVALNGKGAPRRGQKTRRKNTSAHFLPMVVHS
notes: as for B1
B7: bone morphogenetic protein (BMP)-3 (ligand, UniProt P12645 363-472, looked up)
chain: QWIEPRNCARRYLKVDFADIGWSEWIISPKSFDAYYCSGACQFPMPKSLKPSNHATIQSIVRAVGVVPGIPEPCCVPEKMSSLSILFFDENKNVVLKVYPNMTVESCACR
notes: as for B1
B8: brain-derived neurotrophic factor (BDNF) (ligand, UniProt P23560 129-247, looked up)
chain: HSDPARRGELSVCDSISEWVTAADKKTAVDMSGGTVTVLEKVPVSKGQLKQYFYETKCNPMGYTKEGCRGIDKRHWNSQCRTTQSYVRALTMDSKKRIGWRFIRIDTSCVCTLTIKRGR
notes: as for B1
B9: TGF-β3 (ligand, UniProt P10600 301-412, looked up)
chain: ALDTNYCFRNLEENCCVRPLYIDFRQDLGWKWVHEPKGYYANFCSGPCPYLRSADTTHSTVLGLYNTLNPEASASPCCVPQDLEPLTILYYVGRTPKVEQLSNMVVKSCKCS
notes: as for B1
B10: epidermal growth factor (EGF) (ligand, UniProt P01133 971-1023, looked up)
chain: NSDSECPLSHDGYCLHDGVCMYIEALDKYACNCVVGYIGERCQYRDLKWWELR
notes: as for B1

Key:
[1] = molecular target: T1, placental growth factor (PlGF)-2; assay: ELISA; peptide coated at 10 µg/mL, 1 µg/mL PlGF-2 in solution, bound GF detected with antibody [panel PlGF-2]
Procedure: (§1) FIG. 9. […] Affinity of GFs against chemically synthesized peptides that are scrambled (Scr) the sequence of α3₃₀₄₃₋₃₀₆₂. ELISA plates were coated with 10 μg/mL laminin peptide and further incubated with VEGF-A165, PlGF-2, PDGF-BB, or FGF-2. Concentrations were 1 μg/mL for GFs. Bound GF was detected with a specific antibody for each GF (n=4, mean±SEM). Statistical analyses were done using one-way ANOVA. *p<0.05, **p<0.01. Sequence of the peptides are described in Table 2.
(§2) ELISA tests were performed as described above. […] 1 μg/mL of BSA served as non-binding protein control. After blocking with 2% BSA PBS-0.05% Tween 20 (PBS-T) solution, 1 μg/mL of the recombinant human proteins (VEGF-A121, VEGF-A165, PlGF-1, PlGF-2, PDGF-BB or FGF-2) or 10 μg/mL of biotinylated heparin (Sigma-Aldrich) were added. Bound GF was detected with biotinylated antibodies for human VEGF, PlGF, PDGF-BB, or FGF-2 (R&D Systems). The antibodies were detected by streptavidin-HRP (R&D Systems).

[2] = molecular target: T2, vascular endothelial growth factor (VEGF)-A165 (human, UniProt P15692-4 27-191); assay: ELISA; peptide coated at 10 µg/mL, 1 µg/mL VEGF-A165 in solution, bound GF detected with antibody [panel VEGF-A165]
T2 construct: mature; Purchased in mature form, not glycosylated
Procedure: as §1, §2

[3] = molecular target: T3, fibroblast growth factor (FGF)-2 (human, UniProt P09038 143-288); assay: ELISA; peptide coated at 10 µg/mL, 1 µg/mL FGF-2 in solution, bound GF detected with antibody [panel FGF-2]
T3 construct: mature; Purchased in mature form
Procedure: as §1, §2

[4] = molecular target: T4, platelet-derived growth factor (PDGF)-BB (human, UniProt P01127 82-190); assay: ELISA; peptide coated at 10 µg/mL, 1 µg/mL PDGF-BB in solution, bound GF detected with antibody [panel PDGF-BB]
T4 construct: mature; Purchased in mature form
Procedure: as §1, §2

human plasma-derived vWF = molecular target: T5, human plasma-derived vWF (human, UniProt P04275 764-2813); assay: ELISA, GF coated 50 nM, vWF 1 µg/mL
T5 construct: mature; also called plasma-derived purified vWF; von Willebrand factor
Procedure: ELISA tests were performed as previously reported1. In brief, ELISA plates (med-binding, Greiner Bio-One) were coated with 50 nM GFs at 37° C. for 2 hrs. […] Then, HRP conjugated goat anti-rabbit antibody (Jackson ImmunoResearch) was added. After 60 min of incubation, 50 μL TMB substrate (Sigma-Aldrich) was added. The reaction was stopped by adding 25 μL of 2N H2SO4. Subsequently, the absorbance at 450 nm was measured and subtracted the absorbance at 570 nm.

laminin-511 = molecular target: T6, laminin-511 (human, UniProt O15230 36-3695; P07942 22-1786; P11047 34-1609); assay: ELISA, GF coated, laminin 10 nM
T6 construct: Full-length recombinant human laminin isoform (BioLamina); chains read from the isoform name
Procedure: (§3) ELISA tests were performed as previously reported. In brief, ELISA plates (med-binding, Greiner Bio-One) were coated with 50 nM GFs at 37° C. for more than 2 hrs. […] Bound laminin was detected with rabbit anti-human laminin γ1 chain antibody (1:1000 dilution, Assay biotech) or rabbit anti-human laminin α3 chain antibody (1:1000 dilution, Assay biotech). After incubation with biotinylated anti-rabbit antibody for 60 min at room temperature (RT), HRP conjugated streptavidin (Jackson ImmunoResearch) was added. After 60 min of incubation at RT, 50 μL TMB substrate (Sigma-Aldrich) was added. The reactions were stopped by adding 25 μL of 2 N H₂SO₄. Subsequently, the absorbance at 450 nm was measured with a reference of 570 nm.

laminin-521 = molecular target: T7, laminin-521 (human, UniProt O15230 36-3695; P55268 33-1798; P11047 34-1609); assay: ELISA, GF coated, laminin 10 nM
T7 construct: Full-length recombinant human laminin isoform (BioLamina); chains read from the isoform name
Procedure: as §3

laminin-421 = molecular target: T8, laminin-421 (human, UniProt Q16363 25-1823; P55268 33-1798; P11047 34-1609); assay: ELISA, GF coated, laminin 10 nM
T8 construct: Full-length recombinant human laminin isoform (BioLamina); chains read from the isoform name
Procedure: as §3

laminin-111 = molecular target: T9, laminin-111 (human, UniProt P25391 18-3075; P07942 22-1786; P11047 34-1609); assay: ELISA, GF coated, laminin 10 nM
T9 construct: Full-length recombinant human laminin isoform (BioLamina); Chain composition is read from the isoform name
Procedure: as §3

laminin-411 = molecular target: T10, laminin-411 (human, UniProt Q16363 25-1823; P07942 22-1786; P11047 34-1609); assay: ELISA, GF coated, laminin 10 nM
T10 construct: Full-length recombinant human laminin isoform (BioLamina); chains read from the isoform name
Procedure: as §3

laminin-211 = molecular target: T11, laminin-211 (human, UniProt P24043 23-3122; P07942 22-1786; P11047 34-1609); assay: ELISA, GF coated, laminin 10 nM
T11 construct: Full-length recombinant human laminin isoform (BioLamina); chains read from the isoform name
Procedure: as §3

T2 sequence (P15692 other isoform, or with tags, fused parts or gaps limits assumed): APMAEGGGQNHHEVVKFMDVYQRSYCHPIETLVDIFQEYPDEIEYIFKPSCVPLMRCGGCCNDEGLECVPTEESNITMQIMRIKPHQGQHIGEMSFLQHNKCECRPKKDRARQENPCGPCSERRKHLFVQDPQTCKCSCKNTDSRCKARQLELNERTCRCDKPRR
T4 sequence (P01127 82-190): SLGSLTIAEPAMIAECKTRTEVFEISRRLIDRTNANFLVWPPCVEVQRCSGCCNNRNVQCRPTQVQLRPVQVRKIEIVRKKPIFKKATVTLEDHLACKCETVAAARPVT
T3 sequence (P09038 143-288): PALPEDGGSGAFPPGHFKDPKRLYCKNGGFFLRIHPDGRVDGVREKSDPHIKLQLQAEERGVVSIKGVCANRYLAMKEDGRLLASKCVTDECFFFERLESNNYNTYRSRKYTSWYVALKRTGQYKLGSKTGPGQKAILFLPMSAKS

| Binder | binding result [1] | binding result [2] | binding result [3] | binding result [4] | binding result (human plasma-derived vWF) | binding result (laminin-511) | binding result (laminin-521) | binding result (laminin-421) | binding result (laminin-111) | binding result (laminin-411) | binding result (laminin-211) |
| --- | --- | --- | --- | --- | --- | --- | --- | --- | --- | --- | --- |
| RLVKALKTDKFLGRIGSEKCNDKGK (Scrambled peptide) [α3 3043-3067 Scr1] | binds | binds | binds | binds |  |  |  |  |  |  |  |
| RKTDALELVFLKKGGIGSKKCNDKR (Scrambled peptide) [α3 3043-3067 Scr2] | binds | binds | binds | binds |  |  |  |  |  |  |  |
| CRKKKRKKKALLLGIGDFNSEVTDG (Scrambled peptide) [α3 3043-3067 Scr3] | binds | binds | binds | binds |  |  |  |  |  |  |  |
| KKRKLVALTDFLGICGSENDGRKKK (Scrambled peptide) [α3 3043-3067 Scr4] | binds | binds | binds | binds |  |  |  |  |  |  |  |
| LVRAKLTDKFLGKRIGSKECNKDKG (Scrambled peptide) [α3 3043-3067 Scr5] | binds | binds | binds | binds |  |  |  |  |  |  |  |
| ALLLGIGRDFNKKKRKKKSEVTDGC (Scrambled peptide) [α3 3043-3067 Scr6] | binds | binds | binds | binds |  |  |  |  |  |  |  |
| B1 |  |  |  |  | binds | binds | binds | binds | binds | binds | binds |
| B2 |  |  |  |  | binds | binds | binds | binds | binds | binds | binds |
| B3 |  |  |  |  | binds | binds | binds | binds | binds | binds | binds |
| B4 |  |  |  |  | binds | binds | binds | binds | binds | binds | binds |
| B5 |  |  |  |  | binds | no binding (tested: A450 0.1) | no binding (tested: A450 0.1) | no binding (tested: A450 0.1) | no binding (tested: A450 0.1) | no binding (tested: A450 0.1) | no binding (tested: A450 0.1) |
| B6 |  |  |  |  |  | binds | binds | binds | binds | binds | binds |
| B7 |  |  |  |  |  | binds | binds | binds | binds | binds | binds |
| B8 |  |  |  |  |  | binds | binds | binds | binds | binds | binds |
| B9 |  |  |  |  | no binding |  |  |  |  |  |  |
| B10 |  |  |  |  | no binding |  |  |  |  |  |  |
